The numbers were not newly measured in publication PMC6627586, which cites them from elsewhere.

pKd: −log10 of the molar value.

As usually defined, the pKd is the Kd on a negative log10 scale, so that one unit is a factor of ten.

This series has as its target ceruloplasmin (Homo sapiens) (UniProt P00450).
Chain of UniProt P00450 (P00450 20-1065): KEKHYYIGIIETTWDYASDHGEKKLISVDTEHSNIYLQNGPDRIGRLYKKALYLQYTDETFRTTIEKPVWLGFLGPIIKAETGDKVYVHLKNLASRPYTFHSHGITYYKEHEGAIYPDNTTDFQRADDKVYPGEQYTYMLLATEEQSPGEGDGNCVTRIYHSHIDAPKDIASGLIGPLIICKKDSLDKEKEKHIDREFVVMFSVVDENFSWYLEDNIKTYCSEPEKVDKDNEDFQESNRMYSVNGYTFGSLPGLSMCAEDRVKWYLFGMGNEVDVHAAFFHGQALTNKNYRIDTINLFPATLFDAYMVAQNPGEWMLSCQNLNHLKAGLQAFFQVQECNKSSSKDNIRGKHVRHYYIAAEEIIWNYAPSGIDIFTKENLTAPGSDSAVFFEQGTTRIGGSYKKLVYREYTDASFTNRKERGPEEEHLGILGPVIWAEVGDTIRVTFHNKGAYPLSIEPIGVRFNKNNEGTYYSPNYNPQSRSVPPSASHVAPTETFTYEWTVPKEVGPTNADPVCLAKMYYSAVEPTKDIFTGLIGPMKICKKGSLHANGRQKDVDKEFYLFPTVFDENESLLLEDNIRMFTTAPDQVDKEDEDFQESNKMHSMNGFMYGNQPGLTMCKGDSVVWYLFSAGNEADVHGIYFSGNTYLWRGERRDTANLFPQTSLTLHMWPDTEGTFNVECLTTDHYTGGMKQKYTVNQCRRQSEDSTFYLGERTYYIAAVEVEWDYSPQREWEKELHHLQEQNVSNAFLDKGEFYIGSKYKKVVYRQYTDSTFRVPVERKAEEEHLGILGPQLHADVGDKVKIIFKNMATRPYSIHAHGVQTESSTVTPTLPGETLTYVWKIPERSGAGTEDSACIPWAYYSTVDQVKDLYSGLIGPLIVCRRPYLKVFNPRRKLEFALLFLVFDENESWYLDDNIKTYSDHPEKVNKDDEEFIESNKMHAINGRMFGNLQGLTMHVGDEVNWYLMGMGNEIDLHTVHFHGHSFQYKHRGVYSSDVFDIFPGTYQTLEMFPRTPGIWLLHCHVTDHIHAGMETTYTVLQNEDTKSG

On to “CTR1 second extracellular loop fragment (from UniProt O15431)”, for which the pKd is 5.82.
